Source: US20030113787A1 (Takeda / Millennium, published 2003)

T1: FLAG-tagged CARD-10 (human, UniProt Q9BWT7 1-1032)
T1 construct: Expressed in 293T cells; also called FLAG-CARD-10
T1 sequence: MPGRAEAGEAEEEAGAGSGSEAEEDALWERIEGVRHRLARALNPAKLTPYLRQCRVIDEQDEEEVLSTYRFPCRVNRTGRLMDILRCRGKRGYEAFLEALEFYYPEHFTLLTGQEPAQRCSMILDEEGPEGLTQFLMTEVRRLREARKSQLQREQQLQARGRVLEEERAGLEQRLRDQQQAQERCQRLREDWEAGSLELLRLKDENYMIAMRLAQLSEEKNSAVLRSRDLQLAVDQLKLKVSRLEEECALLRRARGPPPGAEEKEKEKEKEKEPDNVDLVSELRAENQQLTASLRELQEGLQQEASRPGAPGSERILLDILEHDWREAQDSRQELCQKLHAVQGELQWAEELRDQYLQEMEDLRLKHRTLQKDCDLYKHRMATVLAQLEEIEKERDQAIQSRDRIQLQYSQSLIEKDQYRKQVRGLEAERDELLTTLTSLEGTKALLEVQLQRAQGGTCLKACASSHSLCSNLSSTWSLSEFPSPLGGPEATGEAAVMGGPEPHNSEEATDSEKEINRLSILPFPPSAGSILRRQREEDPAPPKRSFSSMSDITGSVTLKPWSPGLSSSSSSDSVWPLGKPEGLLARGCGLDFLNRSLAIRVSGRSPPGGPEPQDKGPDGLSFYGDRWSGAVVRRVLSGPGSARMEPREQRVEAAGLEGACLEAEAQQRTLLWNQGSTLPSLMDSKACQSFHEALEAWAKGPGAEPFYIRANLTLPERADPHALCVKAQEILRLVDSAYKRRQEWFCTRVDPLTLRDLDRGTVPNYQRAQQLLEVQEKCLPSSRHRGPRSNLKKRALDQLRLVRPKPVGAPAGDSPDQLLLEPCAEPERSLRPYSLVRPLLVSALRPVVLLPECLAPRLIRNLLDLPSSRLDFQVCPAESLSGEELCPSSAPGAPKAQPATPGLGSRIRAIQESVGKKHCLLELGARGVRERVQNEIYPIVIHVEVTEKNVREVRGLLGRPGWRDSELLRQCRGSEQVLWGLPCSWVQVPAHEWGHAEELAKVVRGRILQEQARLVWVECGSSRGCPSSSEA

T2: FLAG-CARD10/ΔCARD (human, UniProt Q9BWT7 131-1032)
T2 construct: also called CARD-10 truncation mutant lacking its CARD domain
T2 sequence: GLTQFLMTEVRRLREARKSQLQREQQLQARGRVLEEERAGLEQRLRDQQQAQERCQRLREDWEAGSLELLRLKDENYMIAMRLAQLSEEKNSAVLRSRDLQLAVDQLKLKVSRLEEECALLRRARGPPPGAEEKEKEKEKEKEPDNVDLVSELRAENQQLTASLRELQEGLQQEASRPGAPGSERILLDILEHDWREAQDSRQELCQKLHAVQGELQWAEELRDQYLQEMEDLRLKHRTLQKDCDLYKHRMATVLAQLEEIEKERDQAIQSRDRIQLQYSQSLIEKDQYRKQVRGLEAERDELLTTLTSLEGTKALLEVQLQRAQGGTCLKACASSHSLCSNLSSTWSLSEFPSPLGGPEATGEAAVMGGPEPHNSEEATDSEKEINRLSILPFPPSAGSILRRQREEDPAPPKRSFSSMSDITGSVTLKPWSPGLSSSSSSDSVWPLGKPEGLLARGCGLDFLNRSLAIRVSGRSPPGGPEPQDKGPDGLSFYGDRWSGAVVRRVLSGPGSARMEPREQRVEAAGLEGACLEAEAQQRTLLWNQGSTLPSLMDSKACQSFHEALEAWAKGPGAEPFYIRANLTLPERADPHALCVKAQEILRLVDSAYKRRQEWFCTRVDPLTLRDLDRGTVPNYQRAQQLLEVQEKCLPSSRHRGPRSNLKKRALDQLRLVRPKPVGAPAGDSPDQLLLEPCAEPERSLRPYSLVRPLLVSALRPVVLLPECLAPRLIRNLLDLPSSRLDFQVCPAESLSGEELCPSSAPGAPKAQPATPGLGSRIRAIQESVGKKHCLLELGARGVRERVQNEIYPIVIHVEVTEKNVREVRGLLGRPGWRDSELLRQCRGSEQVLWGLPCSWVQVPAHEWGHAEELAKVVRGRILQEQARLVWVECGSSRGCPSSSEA

B1: variant Bcl-10 with a point mutation (L41R) (other, UniProt O95999 1-233, looked up)
chain: MEPTAPSLTEEDLTEVKKDALENLRVYLCEKIIAERHFDHRRAKKILSREDTEEISCRTSSRKRAGKLLDYLQENPKGLDTLVESIRREKTQNFLIQKITDEVLKLRNIKLEHLKGLKCSSCEPFPDGATNNLSRSNSDESNFSEKLRASTVMYHPEGESSTTPFFSTNSSLNLPVLEVGRTENTIFSSTTLPRPGDPGAPPLPPDLQLEEEGTCANSSEMFLPLRSRTVSRQ
notes: also called Bcl-10 L41R mutant
B2: endogenous Bcl-10 (other, human, UniProt O95999 1-233, looked up)
chain: MEPTAPSLTEEDLTEVKKDALENLRVYLCEKIIAERHFDHLRAKKILSREDTEEISCRTSSRKRAGKLLDYLQENPKGLDTLVESIRREKTQNFLIQKITDEVLKLRNIKLEHLKGLKCSSCEPFPDGATNNLSRSNSDESNFSEKLRASTVMYHPEGESSTTPFFSTNSSLNLPVLEVGRTENTIFSSTTLPRPGDPGAPPLPPDLQLEEEGTCANSSEMFLPLRSRTVSRQ
notes: Endogenous protein in cell extracts

Tests used:
FLAG-tagged CARD-10 = molecular target: T1, FLAG-tagged CARD-10; assay: co-immunoprecipitation from transfected 293T cells
FLAG-CARD10/ΔCARD [1] = molecular target: T2, FLAG-CARD10/ΔCARD; assay: co-immunoprecipitation from transfected 293T cells
FLAG-CARD10/ΔCARD [2] = molecular target: T2, FLAG-CARD10/ΔCARD; assay: co-immunoprecipitation with anti-Bcl-10 antibodies, anti-FLAG blot

| Binder | binding result (FLAG-tagged CARD-10) | binding result (FLAG-CARD10/ΔCARD [1]) | binding result (FLAG-CARD10/ΔCARD [2]) |
| --- | --- | --- | --- |
| B1 | no binding | no binding | – |
| B2 | – | – | no binding |
